Values belong to the binder of their own block, whether it stands above or below them.
Assays:
[1] = biological target: recombinant IL-1RAP biotinylated protein (UniProt Q9NPH3); assay: flow cytometry, serial dilution of biotinylated IL-1RAP on CAR-transduced CEM cells, anti-biotin antibody; single experiment
[2] = biological target: recombinant IL-1RAP biotinylated protein (UniProt Q9NPH3); assay: flow cytometry, biotinylated IL-1RAP (1.25 ng) on CAR-transduced CEM cells, anti-biotin antibody
[3] = biological target: recombinant IL-1RAP biotinylated protein (UniProt Q9NPH3); assay: flow cytometry, serial dilution of biotinylated IL-1RAP on CAR-transduced primary T cells, anti-biotin antibody; single experiment
[4] = biological target: recombinant IL-1RAP biotinylated protein (UniProt Q9NPH3); assay: flow cytometry, biotinylated IL-1RAP (0.15 ng) on CAR-transduced primary T cells, anti-biotin antibody
[5] = biological target: IL-1RAP expressed at the cell surface of human cells (human), Q9NPH3; assay: flow cytometry on monocytes of healthy donors' peripheral blood (2/5) and bone marrow (3/5); RFI against isotype; conditions: remark: other sources report otherwise
Chain of IL-1RAP expressed at the cell surface of human cells (human), Q9NPH3 (Q9NPH3 21-570): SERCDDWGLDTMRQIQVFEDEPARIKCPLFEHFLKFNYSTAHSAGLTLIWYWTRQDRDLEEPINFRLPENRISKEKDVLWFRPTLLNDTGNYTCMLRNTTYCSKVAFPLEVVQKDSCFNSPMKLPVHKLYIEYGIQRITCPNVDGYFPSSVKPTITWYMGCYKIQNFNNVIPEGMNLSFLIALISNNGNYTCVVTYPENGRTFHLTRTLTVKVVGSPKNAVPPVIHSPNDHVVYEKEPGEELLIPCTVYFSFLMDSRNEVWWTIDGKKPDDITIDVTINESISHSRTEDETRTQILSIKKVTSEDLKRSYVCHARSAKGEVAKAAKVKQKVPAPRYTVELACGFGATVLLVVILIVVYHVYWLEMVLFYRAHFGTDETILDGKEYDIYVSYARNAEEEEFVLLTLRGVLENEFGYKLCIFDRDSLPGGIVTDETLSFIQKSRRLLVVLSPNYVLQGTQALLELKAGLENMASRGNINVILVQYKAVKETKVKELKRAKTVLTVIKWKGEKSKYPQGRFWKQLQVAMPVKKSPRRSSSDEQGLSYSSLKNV

Chain of recombinant IL-1RAP biotinylated protein (Q9NPH3 21-359 limits assumed): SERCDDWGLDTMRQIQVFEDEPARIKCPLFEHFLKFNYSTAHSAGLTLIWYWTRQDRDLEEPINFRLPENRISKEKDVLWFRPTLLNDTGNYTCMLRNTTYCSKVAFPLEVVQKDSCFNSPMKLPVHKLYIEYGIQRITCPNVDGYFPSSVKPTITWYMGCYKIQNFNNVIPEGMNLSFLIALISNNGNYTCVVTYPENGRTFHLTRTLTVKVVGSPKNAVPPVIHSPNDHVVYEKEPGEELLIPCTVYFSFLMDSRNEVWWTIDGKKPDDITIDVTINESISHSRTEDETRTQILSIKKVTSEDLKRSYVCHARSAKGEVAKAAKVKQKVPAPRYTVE

amount of recombinant protein required for recruiting maximum of cells [1]: 1.25 ng | maximum percentage of Biotin+/CD19+ cells [2]: 85.8% | amount of recombinant protein required for recruiting maximum of cells [3]: 0.15 ng | maximum percentage of Biotin+/CD19+ cells [4]: 68.5%
B1: IL-1RAP CAR (scFv of #E3C3 with CD28-4.1BB-CD3z signaling chain) expressed at the surface of transduced CEM or primary T cells (protein, not shown: small tags and cut ends)
scFv: QVQLQQPGAELMMPGASVKVSCEASGYTFTDSWMHWVKQRPGQGLEWIGAIDPSDSYTTYNQKFTGKATLSVDESSNTAYMQLSSLTSEDSAVYYCARYYSGSNYISPFPYWGQGTLVTVSAGGSGGGGSGGGGSVDMESQIQVFVFVFLWLSGVDGDIVMTQSHKFMSTSVGDRVTITCKASLDVSTAVAWYQQKPGQSPKLLIYSASYRYTGVPDRFTGSGSGTDFTFTISSVQAEDLAVYYCQQHYSPPFTFGSGTNLEIK

RFI [5]: < 2
B2: mouse anti-hIL-1RAP monoclonal antibody, clone #E3C3 (antibody, V domains shown)
VH: QVQLQQPGAELMMPGASVKVSCEASGYTFTDSWMHWVKQRPGQGLEWIGAIDPSDSYTTYNQKFTGKATLSVDESSNTAYMQLSSLTSEDSAVYYCARYYSGSNYISPFPYWGQGTLVTVSA
VL: DIVMTQSHKFMSTSVGDRVTITCKASLDVSTAVAWYQQKPGQSPKLLIYSASYRYTGVPDRFTGSGSGTDFTFTISSVQAEDLAVYYCQQHYSPPFTFGSGTNLEIK

From US20220235138A1, “CAR-T CELLS TARGETING IL-1RAP AND THEIR USE IN ACUTE MYELOID LEUKEMIA (AML)” (ETABLISSEMENT FRANCAIS DU SANG, priority 2019, published 2022)
